The values that follow come from paper PMC8385704 (2021).

For orientation: koff means the first-order rate constant of dissociation.

The assay concerns the target His-tagged recombinant human ACE2 protein (residues 19-740), dimeric (human, UniProt Q9BYF1 19-740). In words: BLI. In general terms: BLI is a label-free optical method that tracks binding on a fibre tip over time.

Sequence of His-tagged recombinant human ACE2 protein (residues 19-740), dimeric (Q9BYF1 19-740): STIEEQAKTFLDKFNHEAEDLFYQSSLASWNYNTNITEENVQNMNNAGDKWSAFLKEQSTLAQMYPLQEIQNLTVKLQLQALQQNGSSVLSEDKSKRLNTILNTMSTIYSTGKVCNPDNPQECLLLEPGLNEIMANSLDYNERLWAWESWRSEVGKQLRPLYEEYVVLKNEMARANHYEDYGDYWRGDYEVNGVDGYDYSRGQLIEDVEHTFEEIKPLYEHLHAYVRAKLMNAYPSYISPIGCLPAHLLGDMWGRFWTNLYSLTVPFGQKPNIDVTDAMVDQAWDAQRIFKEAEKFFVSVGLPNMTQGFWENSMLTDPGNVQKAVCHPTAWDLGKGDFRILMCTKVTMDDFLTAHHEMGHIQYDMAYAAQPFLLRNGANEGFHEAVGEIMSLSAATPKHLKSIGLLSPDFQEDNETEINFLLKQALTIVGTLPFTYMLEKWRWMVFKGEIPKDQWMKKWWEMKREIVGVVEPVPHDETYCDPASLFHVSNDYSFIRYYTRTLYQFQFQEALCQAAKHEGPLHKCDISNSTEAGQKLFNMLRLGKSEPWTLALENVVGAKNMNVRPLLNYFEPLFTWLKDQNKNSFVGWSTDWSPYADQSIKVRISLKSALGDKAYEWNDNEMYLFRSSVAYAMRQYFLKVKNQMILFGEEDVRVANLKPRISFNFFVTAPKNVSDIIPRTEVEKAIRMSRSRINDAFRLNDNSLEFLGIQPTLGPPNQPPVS

B1: monoclonal antibody 3E8 (antibody, V domains shown)
VH: EVQLEESGAELVRPGASVKISCKAFGYTFTNHHINWMKQRPGQGLDWIGYVNPYNDYTKYSQNFKGKATLSVDRSSSTAYMELSSLTSEDSAVYYCARWRDYDRDWYFDVWGAGTTVIVSS
VL: DIVMTQSPATLSVTPGDRVSLSCRASQSIRDYLYWYQQKSHESPRLLIKYASQSISGIPSRFSGSGSGSDFTLSINSVEPEDVGVYYCQNGHSFPYTFGGGTKLEIK
In the case of B1, the koff was determined as 0.000278 s⁻¹.
